Reference: paper PMC2259325, “Hepatitis C virus NS5A protein binds the SH3 domain of the Fyn tyrosine kinase with high affinity: mutagenic analysis of residues within the SH3 domain that contribute to the interaction” (Virology Journal, 2008)

Biological target: T1, NS5A(Δ32), N-terminally truncated hepatitis C virus non-structural 5A protein (hepatitis C virus (genotype 1b, J4 …, UniProt O92972 2005-2419))
T1 construct: source: E. coli BL21 pLysS (DE3), purified (Ni-NTA, gel filtration on Superdex75)
T1 sequence: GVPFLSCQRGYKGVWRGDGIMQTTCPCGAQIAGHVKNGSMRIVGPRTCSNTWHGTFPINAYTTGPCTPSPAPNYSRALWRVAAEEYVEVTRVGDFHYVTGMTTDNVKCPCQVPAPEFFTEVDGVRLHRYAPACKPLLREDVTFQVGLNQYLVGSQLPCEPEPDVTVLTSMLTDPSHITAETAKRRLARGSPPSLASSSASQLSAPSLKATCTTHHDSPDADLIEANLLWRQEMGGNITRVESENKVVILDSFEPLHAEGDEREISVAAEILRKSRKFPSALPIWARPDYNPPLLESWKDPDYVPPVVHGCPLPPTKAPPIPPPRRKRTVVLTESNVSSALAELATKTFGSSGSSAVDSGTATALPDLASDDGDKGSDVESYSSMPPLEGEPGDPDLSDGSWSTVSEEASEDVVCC
Test: SPR; Biacore 3000, HBS buffer (10 mM Hepes-NaOH pH 7.4, 150 mM NaCl, 0.005% Tween-20), 25°C; GST-SH3 captured on CM5 chip via amine-coupled anti-GST antibody; NS5A 3 μM - 100 nM flowed over, in triplicate; 1:1 Langmuir fit
Settings: both partners purified

B1: GST-Fyn SH3 domain fusion protein (wild type) (domain or fragment)
chain: not shown
notes: source: expressed and purified as previously described [6]
koff: 0.00308 s⁻¹
kon: 4930 M⁻¹ s⁻¹
